# B1: 4G12: rat anti-bovine PD-L1 monoclonal antibody; VL SEQ ID NO: 1, VH SEQ ID NO: 2 (antibody, listed as Rattus norvegicus, V domains shown)
# VH: MGWSQIILFLVAAATCVHSQVQLQQSGAELVKPGSSVKISCKASGYTFTSNFMHWVKQQPGNGLEWIGWIYPEYGNTKYNQKFDGKATLTADKSSSTAYMQLSSLTSEDSAVYFCASEEAVISLVYWGQGTLVTVSS
# VL: MESQTHVLISLLLSVSGTYGDIAITQSPSSVAVSVGETVTLSCKSSQSLLYSENQKDYLGWYQQKPGQTPKPLIYWATNRHTGVPDRFTGSGSGTDFTLIISSVQAEDLADYYCGQYLVYPFTFGPGTKLELK
# Key:
# [1] = system: canine CD80/PD-L1 binding; experiment: Canine CD80/PD-L1 binding inhibition ELISA (cCD80-Ig immobilized, cPD-L1-Ig); settings: antibody 0, 2.5, 5 and 10 μg/ml
# Method: Using the canine PD-1-Ig, PD-L1-Ig and CD80-Ig (described above), anti-PD-L1 antibody was tested for its ability to inhibit canine PD-1/PD-L1 binding and CD80/PD-L1 binding. Briefly, canine PD-1-Ig or CD80-Ig was immobilized on flat-bottom 96-well plates.
# canine PD-L1 = experiment: Flow cytometry cross-reactivity with canine PD-L1 expressing cells; assay type: binding
# Method: COS-7 cells were subcultured at a density of 5×10^4 cells/cm^2 in 6-well plates, and then cultured overnight in RPMI 1640 medium containing 10% inactivated fetal bovine serum and 0.01% L-glutamine at 37° C. in the presence of 5% CO2. The pEGFP-N2-cPD-1, pEGFP-N2-cPD-L1 or pEGFP-N2 (negative control) was introduced into COS-7 cells at 0.4 μg/cm^2 using Lipofectamine 2000 (Invitrogen). The cells were cultured for 48 hours (cPD-1-EGFP expressing cell and cPD-L1-EGFP expressing cell). In order to confirm the expression of canine PD-1 and PD-L1 in the thus prepared expressing cells, intracellular localization of enhanced green fluorescent protein (EGFP) was visualized with an inverted confocal laser microscope LSM700 (ZEISS) (Maekawa N, Konnai S, Ikebuchi R. Okagawa T, Adachi M, Takagi S, Kagawa Y. Nakajima C, Suzuki Y, Murata S, Ohashi K. PLoS One. 2014 Jun. 10; 9(6):e98415).
# In order to identify rat anti-bovine PD-L1 monoclonal antibody showing cross-reactivity with canine PD-L1, flow cytometry was performed using the anti-bovine PD-L1 antibody prepared in 2.1 above. The anti-bovine PD-L1 antibody (10 μg/ml) was reacted with 2×10^5-1×10^6 cells at room temperature for 30 min. After washing, the anti-bovine PD-L1 antibody was detected with allophycocyanine-labeled anti-rat Ig goat antibody (Beckman Coulter). FACS Verse (Becton, Dickinson and Company) was used for analysis. […]
# [2] = system: PBMCs of BLV-infected cattle; experiment: Biological activity test: IFN-γ production of PBMCs of BLV-infected cattle to BLV antigen; settings: 10 μg/ml antibody, 2% FLK-BLV supernatant, 6 days, n=10
# ovine PD-1/PD-L1 binding = experiment: Ovine PD-1/PD-L1 binding inhibition test (PD-1-EGFP COS-7 cells and PD-L1-Ig); settings: antibody 0-50 μg/ml, ovine PD-L1-Ig 1 μg/ml
# Method: Using ovine PD-1-EGFP expressing COS-7 cells and ovine PD-L1-Ig recombinant protein, or porcine PD-1-EGFP expressing COS-7 cells and porcine PD-L1-Ig recombinant protein, inhibition of ovine or porcine PD-1/PD-L1 binding by rat anti-bovine PD-L1 antibody […] was tested. […] Subsequently, the antibody 4G12 was reacted with 2×10^5 ovine PD-1-EGFP expressing COS-7 cells or porcine PD-1-EGFP expressing COS-7 cells at 37° C. for 30 min. After washing, ovine PD-L1-Ig or porcine PD-L1-Ig bound to cell surfaces was detected with Alexa Fluor 647-labeled anti-rabbit IgG (H+L) goat F(ab′)2 (Life Technologies). For analysis, FACS Verse (BD Biosciences) was used. As a negative control antibody, rat IgG2a (κ) isotype control (BD Biosciences) was used. Taking the proportion of PD-L1-Ig bound cells without antibody addition as 100%, the proportion of PD-L1-Ig bound cells at each antibody concentration was shown as relative value.
molecule,measurement,setting,value
B1,Inhibitory activity against canine CD80/PD-L1 binding,[1],reduced the amounts of binding
same,Cross-reactivity with / binding to canine PD-L1,canine PD-L1,showed cross-reaction with canine PD-L1
same,IFN-γ response of bovine PBMCs to BLV antigen,[2],increases
same,Inhibition of ovine PD-1/PD-L1 binding,ovine PD-1/PD-L1 binding,capable of inhibiting

# From patent US11312773B2, “Anti-PD-L1 antibody” (Fuso Pharmaceutical Industries, Ltd., priority 2016, dated 2022)
